# From patent US20190315854A1 (BEIJING VDJBIO, published 2019)
# Positions count from the first letter of the chain named.
# T1: sIL-6R (soluble IL-6 receptor; SBH Sciences) (human, UniProt P08887 20-365)
# T1 construct: also called human IL-6R
# T1 sequence: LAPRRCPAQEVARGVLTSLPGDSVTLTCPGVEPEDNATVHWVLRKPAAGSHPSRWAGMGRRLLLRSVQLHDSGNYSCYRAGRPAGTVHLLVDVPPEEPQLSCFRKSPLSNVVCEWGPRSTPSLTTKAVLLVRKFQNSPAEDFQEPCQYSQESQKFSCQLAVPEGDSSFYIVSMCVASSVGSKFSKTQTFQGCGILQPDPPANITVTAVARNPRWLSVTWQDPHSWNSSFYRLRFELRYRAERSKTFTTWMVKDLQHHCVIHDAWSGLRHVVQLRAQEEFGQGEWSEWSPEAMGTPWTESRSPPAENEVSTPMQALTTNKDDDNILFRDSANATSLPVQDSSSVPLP
# B1: 3# (antibody, human IgG1, kappa, V domains shown)
# VH: QVQLQESGPGLVRPSQTLSLTCTVSGYSITSDHAWSWVRQPPGRGLEWIGYISYSGITTYNPSLKSRVTMLRDTSKNQFSLRLSSVTAADTAVYYCARSLARATAMDYWGQGSLVTVSS
# VL: DIQMTQSPSSLSASVGDRVTITCRASQDISSYLNWYQQKPGKAPKLLIYYTSRLHSGVPSRFSGSGSGTDFTFTISSLQPEDIATYYCQQGNTLPYTFGQGTKVEIKR
# notes: also called Sample # 3
# B2: 28# (antibody, human IgG1, kappa, V domains shown)
# VH: B1 VH with Y51F, I57M, A103T
# VL: B1 VL
# notes: also called Sample # 28
# B3: 12# (antibody, human IgG1, kappa, V domains shown)
# VH: B1 VH with Y51F, S99C
# VL: B1 VL
# notes: also called Sample # 12
# B4: 11# (antibody, human IgG1, kappa, V domains shown)
# VH: B1 VH with Y51F
# VL: B1 VL
# notes: also called Sample # 11
# B5: 17# (antibody, human IgG1, kappa, V domains shown)
# VH: B1 VH with Y51F, S99C, A103T
# VL: B1 VL
# notes: also called Sample # 17
# B6: 16# (antibody, human IgG1, kappa, V domains shown)
# VH: B1 VH with Y51F, A103I
# VL: B1 VL
# notes: also called Sample # 16
# B7: 15# (antibody, human IgG1, kappa, V domains shown)
# VH: B1 VH with Y51F, S99C, A103I
# VL: B1 VL
# notes: also called Sample # 15
# B8: 9# (antibody, human IgG1, kappa, V domains shown)
# VH: B1 VH with T58I, P62A, S99C, A103T
# VL: B1 VL
# notes: also called Sample # 9
# B9: 27# (antibody, human IgG1, kappa, V domains shown)
# VH: B1 VH with Y51F, I57M
# VL: B1 VL
# notes: also called Sample # 27
# B10: 45# (antibody, human IgG1, kappa, V domains shown)
# VH: B1 VH with S99T, A103T
# VL: B1 VL
# notes: also called Sample # 45
# B11: 35# (antibody, human IgG1, kappa, V domains shown)
# VH: B1 VH with A103M
# VL: B1 VL
# notes: also called Sample # 35
# B12: 14# (antibody, human IgG1, kappa, V domains shown)
# VH: B1 VH with Y51F, A103I
# VL: B1 VL
# notes: also called Sample # 14
# B13: 30# (antibody, human IgG1, kappa, V domains shown)
# VH: B1 VH with Y51F, I57M, S99C, A103T
# VL: B1 VL
# notes: also called Sample # 30
# B14: 18# (antibody, human IgG1, kappa, V domains shown)
# VH: B1 VH with Y51F, S99C, A103I
# VL: B1 VL
# notes: also called Sample # 18
# B15: 24# (antibody, human IgG1, kappa, V domains shown)
# VH: B1 VH with S99C, A103I
# VL: B1 VL
# notes: also called Sample # 24
# B16: 8# (antibody, human IgG1, kappa, V domains shown)
# VH: B1 VH with Y51F, A103T, Y108F
# VL: B1 VL
# notes: also called Sample # 8
# B17: 13# (antibody, human IgG1, kappa, V domains shown)
# VH: B1 VH with Y51F, S99C, A103T
# VL: B1 VL
# notes: also called Sample # 13
# B18: 26# (antibody, human IgG1, kappa, V domains shown)
# VH: B1 VH with I57M, A103T
# VL: B1 VL
# notes: also called Sample # 26
# B19: 5# (antibody, human IgG1, kappa, V domains shown)
# VH: B1 VH with Y51F, A103T
# VL: B1 VL
# notes: also called Sample # 5
# B20: 7# (antibody, human IgG1, kappa, V domains shown)
# VH: B1 VH with A103T, M106I
# VL: B1 VL
# notes: also called Sample # 7
# B21: 244# (antibody, human IgG1, kappa, V domains shown)
# VH: B1 VH with S99T, A103M, M106I, Y108F
# VL: B1 VL with Q89G, T93R
# B22: 245# (antibody, human IgG1, kappa, V domains shown)
# VH: B1 VH with I57M, T58I, S99T, A103M
# VL: B1 VL with Q89G, T93R
# B23: 246# (antibody, human IgG1, kappa, V domains shown)
# VH: B1 VH with I57M, T58I, S99T, A103T, M106I, Y108F
# VL: B1 VL with Q89G, T93R
# B24: 243# (antibody, human IgG1, kappa, V domains shown)
# VH: B1 VH with I57M, T58I, S99C, A103T, M106I, Y108F
# VL: B1 VL with Q89G, T93R
# B25: 242# (antibody, human IgG1, kappa, V domains shown)
# VH: B1 VH with I57M, T58I, A103M, M106I, Y108F
# VL: B1 VL with Q89G, T93R
# notes: also called Sample # 242
# Molecular target: T1, sIL-6R (soluble IL-6 receptor; SBH …)
# Experiment: SPR (BIAcore 3000), antibody on chip, sIL-6R analyte, 25 C
# Description: (§1) All SPR measurements were performed on a BIAcore 3000 instrument (GE Biosciences, Piscataway, N.J.). BIAcore Software-BIAcore 3000 Control Software V3.2 was used for the operation and control of the BIAcore 3000 instrument. BiaEvaluation Software V4.1 was used for the analysis of SPR data from the BIAcore 3000 instrument and data was plotted using Graph Pad Prism Software Version 5. […] The indicated antibodies were used as the ligand for the construction of the reference channel of the chip. […] Each sample was injected for 3 min at a flow rate of 30 μL/min to allow for binding to chip-bound antibody. Next, binding buffer without analyte was sent over the chip at the same flow rate to allow for dissociation of bound analyte. After 500s, remaining bound analyte was removed by injecting regeneration solution (1M Formic acid). Data was analyzed by using the Kinetics Wizard and the manual fitting programs that are both included with the BiaEvaluation Software V4.1.
Kd [nM],Relative Affinity,koff [s⁻¹],kon [M⁻¹ s⁻¹],Binder
0.435,3.9 fold vs 25 (Tocilizumab),8.87e-05,204000,B1
0.408,4.2 fold vs 25 (Tocilizumab),0.000148,363000,B2
0.418,4.1 fold vs 25 (Tocilizumab),0.000126,302000,B3
0.112,15.3 fold vs 25 (Tocilizumab),3.08e-05,276000,B4
0.354,4.8 fold vs 25 (Tocilizumab),0.000117,331000,B5
0.187,9.1 fold vs 25 (Tocilizumab),6.3e-05,336000,B6
0.2,8.6 fold vs 25 (Tocilizumab),5.97e-05,298000,B7
0.32,5.3 fold vs 25 (Tocilizumab),6.28e-05,196000,B8
0.126,13.6 fold vs 25 (Tocilizumab),4.27e-05,339000,B9
0.605,2.8 fold vs 25 (Tocilizumab),0.000106,175000,B10
0.648,2.6 fold vs 25 (Tocilizumab),0.000146,225000,B11
0.261,6.6 fold vs 25 (Tocilizumab),9.75e-05,374000,B12
0.255,6.7 fold vs 25 (Tocilizumab),8.33e-05,327000,B13
0.167,10.2 fold vs 25 (Tocilizumab),5.42e-05,325000,B14
0.317,5.4 fold vs 25 (Tocilizumab),7.99e-05,252000,B15

# Molecular target: T1, sIL-6R (soluble IL-6 receptor; SBH …)
# Experiment: as above
# Remark: another data set of the same source
# Description: as §1
Kd [nM],Relative Affinity,koff [s⁻¹],kon [M⁻¹ s⁻¹],Binder
0.273,4.9 fold vs 25 (Tocilizumab),5.8e-05,213000,B1
0.268,5 fold vs 25 (Tocilizumab),7.61e-05,284000,B2
0.288,4.6 fold vs 25 (Tocilizumab),8.32e-05,289000,B3
0.0863,15.5 fold vs 25 (Tocilizumab),2.38e-05,275000,B4
0.304,4.4 fold vs 25 (Tocilizumab),8.71e-05,287000,B5
0.136,9.8 fold vs 25 (Tocilizumab),4.04e-05,296000,B6
0.145,9.2 fold vs 25 (Tocilizumab),4.49e-05,310000,B7
0.893,1.5 fold vs 25 (Tocilizumab),0.000241,270000,B16
0.249,5.4 fold vs 25 (Tocilizumab),5.94e-05,239000,B8
0.373,3.6 fold vs 25 (Tocilizumab),0.0001,269000,B17
0.42,3.2 fold vs 25 (Tocilizumab),0.000102,243000,B18
0.882,1.5 fold vs 25 (Tocilizumab),0.000234,266000,B19
0.102,13.1 fold vs 25 (Tocilizumab),3.46e-05,339000,B9
0.763,1.8 fold vs 25 (Tocilizumab),0.000177,232000,B20
0.181,7.4 fold vs 25 (Tocilizumab),5.69e-05,314000,B12
0.235,5.7 fold vs 25 (Tocilizumab),7.03e-05,299000,B13
0.141,9.5 fold vs 25 (Tocilizumab),4.73e-05,335000,B14
0.281,4.8 fold vs 25 (Tocilizumab),7.13e-05,254000,B15

# Molecular target: T1, sIL-6R (soluble IL-6 receptor; SBH …)
# Experiment: as above
# Remark: another data set of the same source
# Description: as §1
Kd [nM],Relative Affinity,koff [s⁻¹],kon [M⁻¹ s⁻¹],Binder
0.166,19 fold vs 25 (Tocilizumab),2.33e-05,140000,B21
0.25,12.6 fold vs 25 (Tocilizumab),3.53e-05,141000,B22
0.0789,40.1 fold vs 25 (Tocilizumab),9.86e-06,125000,B23
0.273,11.6 fold vs 25 (Tocilizumab),1.94e-05,71000,B24
1.24,2.6 fold vs 25 (Tocilizumab),8.71e-05,70200,B25
